From publication PMC9843055, “Karyopherin α deficiency contributes to human preimplantation embryo arrest” (The Journal of Clinical Investigation, 2023) come the findings set out here.

The experiment concerns the target T1, human KPNA7 (karyopherin subunit α7), WT, purified, GST cleaved (human, UniProt A9QM74 1-516).
T1 construct: karyopherin subunit α7 (importin α8), human; also called hKPNA7; importin α8; source: E. coli BL21 (DE3) plysS, purified (glutathione Sepharose, GST tag cut with PreScission protease)
The experiment is described as follows: pull-down; GST-SV40TNLS-GFP or GST-RSL1D1-GFP held on GST beads (4°C, 1 h, transport buffer with 0.1% Triton X-100), then cleaved WT or mutant KPNA7 at 4°C for 2 h; Western blotting. The conditions noted are these: both partners purified. (In general: A western blot detects proteins with antibodies after separation by electrophoresis.)

T1 sequence (A9QM74 whole entry): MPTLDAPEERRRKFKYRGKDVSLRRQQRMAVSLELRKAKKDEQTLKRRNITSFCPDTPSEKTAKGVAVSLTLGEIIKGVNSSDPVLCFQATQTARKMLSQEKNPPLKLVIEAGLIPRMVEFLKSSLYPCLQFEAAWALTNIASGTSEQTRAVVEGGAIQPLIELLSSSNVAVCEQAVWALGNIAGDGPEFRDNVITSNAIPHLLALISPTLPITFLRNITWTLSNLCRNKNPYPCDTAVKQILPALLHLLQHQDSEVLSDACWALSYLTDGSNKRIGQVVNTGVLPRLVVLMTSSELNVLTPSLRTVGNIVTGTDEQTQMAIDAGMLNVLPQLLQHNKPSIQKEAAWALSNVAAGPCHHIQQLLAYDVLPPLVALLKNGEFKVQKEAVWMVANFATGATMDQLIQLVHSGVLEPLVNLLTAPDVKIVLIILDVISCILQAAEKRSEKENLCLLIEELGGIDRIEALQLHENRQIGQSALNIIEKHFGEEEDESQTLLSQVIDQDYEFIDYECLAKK

B1: GST-SV40TNLS-GFP (other)
chain: PKKKRKV
notes: nuclear localization signal of the SV40 large T antigen (SV40TNLS), between GST and GFP; source: E. coli BL21 (DE3) plysS, purified (glutathione Sepharose); not shown: GST, N-terminal, kept; GFP, C-terminal, kept
With B1, the binding result is “binds”.
